{"source": "patent US20120316113A1", "about": "“FGF BASED FIBRIN BINDING PEPTIDES” (Baxter Healthcare S.A., priority 2011, published 2012)", "key": {"[1]": {"target": "T1, fibrin clots (Homo sapiens, UniProt P02671+P02675+P02679)", "T1 sequence (P02671 36-866 limits assumed)": "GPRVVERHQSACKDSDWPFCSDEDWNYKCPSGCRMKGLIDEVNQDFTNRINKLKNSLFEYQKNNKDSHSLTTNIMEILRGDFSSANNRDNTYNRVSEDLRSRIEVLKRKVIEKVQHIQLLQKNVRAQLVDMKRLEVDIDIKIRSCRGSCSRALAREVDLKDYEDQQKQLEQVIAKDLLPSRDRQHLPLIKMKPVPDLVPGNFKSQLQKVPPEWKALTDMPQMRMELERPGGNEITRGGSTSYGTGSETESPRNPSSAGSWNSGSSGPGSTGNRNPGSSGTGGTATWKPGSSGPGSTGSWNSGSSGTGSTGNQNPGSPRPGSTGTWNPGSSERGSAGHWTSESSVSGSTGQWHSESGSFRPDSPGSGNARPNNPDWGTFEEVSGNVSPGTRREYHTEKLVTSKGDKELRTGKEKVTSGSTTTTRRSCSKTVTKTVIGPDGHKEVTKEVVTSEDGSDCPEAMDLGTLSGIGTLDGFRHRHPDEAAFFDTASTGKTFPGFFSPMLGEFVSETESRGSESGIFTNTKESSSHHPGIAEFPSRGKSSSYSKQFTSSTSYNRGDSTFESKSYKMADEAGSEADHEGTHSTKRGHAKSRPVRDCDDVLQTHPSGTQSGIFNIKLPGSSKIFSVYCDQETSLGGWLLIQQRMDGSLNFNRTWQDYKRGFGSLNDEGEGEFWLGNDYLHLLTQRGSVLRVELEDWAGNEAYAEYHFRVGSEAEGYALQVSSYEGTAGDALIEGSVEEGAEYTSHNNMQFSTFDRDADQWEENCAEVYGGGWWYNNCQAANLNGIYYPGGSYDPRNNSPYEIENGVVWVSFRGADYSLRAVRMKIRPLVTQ", "T1 sequence (P02675 45-491 limits assumed)": "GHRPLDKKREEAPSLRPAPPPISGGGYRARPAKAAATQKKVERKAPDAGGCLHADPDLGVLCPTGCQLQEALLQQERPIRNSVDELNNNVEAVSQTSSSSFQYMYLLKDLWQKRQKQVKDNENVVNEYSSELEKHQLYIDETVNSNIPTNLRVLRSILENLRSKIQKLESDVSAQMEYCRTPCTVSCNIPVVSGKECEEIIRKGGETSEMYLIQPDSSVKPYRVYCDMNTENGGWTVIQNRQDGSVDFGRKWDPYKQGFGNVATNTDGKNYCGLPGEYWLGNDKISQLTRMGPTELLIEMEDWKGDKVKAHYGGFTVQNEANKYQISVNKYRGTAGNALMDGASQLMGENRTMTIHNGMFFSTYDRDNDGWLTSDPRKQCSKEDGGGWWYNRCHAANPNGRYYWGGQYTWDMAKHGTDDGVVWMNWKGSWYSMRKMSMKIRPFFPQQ", "T1 sequence (P02679 27-453)": "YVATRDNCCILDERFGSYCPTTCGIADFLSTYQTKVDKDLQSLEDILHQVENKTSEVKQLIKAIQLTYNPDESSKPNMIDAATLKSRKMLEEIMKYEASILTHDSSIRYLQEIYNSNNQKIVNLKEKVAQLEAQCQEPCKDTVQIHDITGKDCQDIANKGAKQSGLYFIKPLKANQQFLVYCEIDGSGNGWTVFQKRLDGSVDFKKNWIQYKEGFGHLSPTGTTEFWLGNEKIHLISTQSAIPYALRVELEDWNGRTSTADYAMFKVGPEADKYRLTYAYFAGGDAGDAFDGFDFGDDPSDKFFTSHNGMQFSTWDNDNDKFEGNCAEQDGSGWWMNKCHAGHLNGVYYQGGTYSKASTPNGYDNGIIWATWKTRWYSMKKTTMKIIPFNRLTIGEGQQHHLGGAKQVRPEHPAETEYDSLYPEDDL", "assay": "Stability of fibrin clots with aprotinin covalently bound through FS-anchors", "assay_type": "biochemical", "details": "aprotinin EDC-coupled to the FS-anchor, clots kept in PBS at 37° C., after 5 days; compared with His-FGF-2 and pep1 anchors", "text": "Aprotinin was successfully covalently bound to one FS-anchor (His-FGF-2, pep1 (68 an), pep3 (37 aa) and pep4 (28 aa)) using a standard protocol for 1-ethyl-3-(3-dimethylaminopropyl)carbodiimide) (EDC) coupling (FIG. 8A). For a positive control recombinant human FGF-2 (ProSpec Tany, Israel) and for a negative control phosphate buffered saline (PBS) were used. Covalently linked to a FS-anchor and purified aprotinin was mixed with fibrinogen and finally with thrombin to form fibrin clots. These fibrin clots were kept in PBS at 37° C. to observe stability and degradation of fibrin."}, "[2]": {"target": "T2, fibrin (Homo sapiens, UniProt P02671+P02675+P02679)", "T2 construct": "an activity for processing fibrinogen to fibrin, preferably a thrombin preparation; purchased Baxter AG, Vienna (Tisseel fibrinogen and Tisseel thrombin)", "T2 sequence (P02671 36-866 limits assumed)": "T1 sequence (P02671 36-866 limits assumed)", "T2 sequence (P02675 45-491 limits assumed)": "T1 sequence (P02675 45-491 limits assumed)", "T2 sequence (P02679 27-453)": "T1 sequence (P02679 27-453)", "assay": "Fibrin binding assay by ELISA", "details": "fibrinogen-coated plate incubated with 10 I.U./ml thrombin, various concentrations", "protocol": "A polystyrene 96-well plate (Nunc® Maxisorp EUSA-plates) was coated with 1 mg/ml fibrinogen (Tisseel®, Baxter AG, Vienna) overnight at 4° C. and then blocked with blocking solution (PBS+1% BSA) for 2 hours at room temperature CRT). After washing three times with PBS, purified peptides were added in various dilutions to the plate and incubated for 1 hour at RT. After the three times washing with PBS, a monoclonal anti-His6-peroxidase antibody (Sigma-Aldrich, Vienna), diluted in PBS+0.1% Tween (Sigma-Aldrich, Vienna) was added and incubated for 1 hour at RT. Finally, the plate was washed three times with PBS again and wells were incubated with o-phenylenediaminehydrochlorid substrate. Absorbance was measured at 492 nm and 620 nm. For fibrin binding analysis, the plate was first coated with fibrinogen overnight at 4° C. and then incubated with 10 I.U./ml thrombin (Tisseel, Baxter AG, Vienna) for 30 minutes at 37° C. The following procedure was the same as described above. […] The signals were detected and recorded at the Reichert SR7000 Surface Plasmon Resonance Analytical Instrument (Reichert Analytical, NY, USA). […]"}}, "data": [{"sequence": "EDGRLLASKCVTDECFFFERLESNNYNTYRSRHHHHH (EDGRLLASKCVTDECFFFERLESNNYNTYRSRHHHHH; synthetic peptide pep 3 (37 aa), peptide #3, pep3 with C-terminus 5x HIS-tag) [also expressed recombinantly]", "values": [{"measurement": "stability of fibrin clots", "setting": "[1]", "result": "higher stability"}]}, {"sequence": "FERLESNNYN TYRSRHHHHH (FERLESNNYNTYRSRHHHHH; synthetic peptide pep 5 (20 aa), peptide #5, pep5 with C-terminus 5x HIS-tag)", "values": [{"measurement": "binding affinity to fibrin", "setting": "[2]", "result": "little binding affinity"}]}, {"sequence": "KCVTDECFFFERLESNNYNTYRSRHHHHH (KCVTDECFFFERLESNNYNTYRSRHHHHH; synthetic peptide pep 4 (29 aa), peptide #4, pep4 with C-terminus 5x HIS-tag)", "values": [{"measurement": "stability of fibrin clots", "setting": "[1]", "result": "higher stability"}]}]}
